Measured values as given in article PMC4204775 (Human Molecular Genetics, 2014).

T1: AGT-Ma (S81L-Ma homodimer) (Homo sapiens, UniProt P21549, S81L)
T1 sequence (P21549 1-392 S81L): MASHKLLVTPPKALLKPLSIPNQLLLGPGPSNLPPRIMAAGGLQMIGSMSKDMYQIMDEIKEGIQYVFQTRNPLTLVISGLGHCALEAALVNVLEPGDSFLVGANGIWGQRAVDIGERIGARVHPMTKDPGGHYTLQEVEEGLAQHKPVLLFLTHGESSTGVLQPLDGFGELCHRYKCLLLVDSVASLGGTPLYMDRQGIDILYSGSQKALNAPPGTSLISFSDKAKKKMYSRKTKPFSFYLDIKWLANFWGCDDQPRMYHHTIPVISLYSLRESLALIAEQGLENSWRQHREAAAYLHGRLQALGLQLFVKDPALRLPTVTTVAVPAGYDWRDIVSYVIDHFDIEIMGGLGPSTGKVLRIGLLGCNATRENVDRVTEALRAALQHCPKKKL


Key:
[1] = molecular target: T1, AGT-Ma (S81L-Ma homodimer); test: CD signal change at […] nm on PLP titration of apoenzyme; format: binding
[2] = substrate: O=CC(=O)O; test: pyruvate formation, lactate dehydrogenase-coupled spectrophotometric assay; format: biochemical, Homo sapiens; conditions: saturating L-alanine, 200 μM PLP, 100 mM potassium phosphate, 25°C
[3] = substrate: C[C@H](N)C(=O)O; test: as above; format: biochemical, Homo sapiens; conditions: saturating glyoxylate, 200 μM PLP, 100 mM potassium phosphate, 25°C

Row | Kd [1] | Molecule | Km [2] | kcat [2] | kcat [3]
1 | 17 ± 3 µM | Cc1ncc(COP(=O)(O)O)c(C=O)c1O [PLP] | – | – | –
2 | – | AGT-Ma (S81L-Ma homodimer) (Homo sapiens; S81L) (protein) MASHKLLVTPPKALLKPLSIPNQLLLGPGPSNLPPRIMAAGGLQMIGSMSKDMYQIMDEIKEGIQYVFQTRNPLTLVISGLGHCALEAALVNVLEPGDSFLVGANGIWGQRAVDIGERIGARVHPMTKDPGGHYTLQEVEEGLAQHKPVLLFLTHGESSTGVLQPLDGFGELCHRYKCLLLVDSVASLGGTPLYMDRQGIDILYSGSQKALNAPPGTSLISFSDKAKKKMYSRKTKPFSFYLDIKWLANFWGCDDQPRMYHHTIPVISLYSLRESLALIAEQGLENSWRQHREAAAYLHGRLQALGLQLFVKDPALRLPTVTTVAVPAGYDWRDIVSYVIDHFDIEIMGGLGPSTGKVLRIGLLGCNATRENVDRVTEALRAALQHCPKKKL | 160 ± 20 µM | 13.9 ± 0.9 s⁻¹ | 13.9 ± 0.9 s⁻¹
